Data: publication PMC12516185

Target: Zea mays pullulanase1 (ZPU1), from residue 80, GAL4 fusion (maize (Zea mays L.)) (UniProt O81638)

## maize isoamylase1 (ISA1), mature protein from residue 50, GAL4 fusion (from UniProt O22637 50-789) (enzyme)
  Red Pullulan hydrolysis (ZPU1 activity) in total soluble extracts of yeast strain 830 (ISA1 and ZPU1) compared with strain 808 (ZPU1 alone): 1.7 fold
